B1: 78 (protein, listed as Marinobacter adhaerens)
chain: MALIDLHAHAPHPDYYDQHPHWGPAFELQSDGDIKLRVGHWVLSLGAPERKQALREAHARGETLDVQEYMAKWRDPEHRLASMDAAGQNAQVLSVPSHCYMYWAEPEFGVPFAKKVNDSLAEYCSAAPDRLMFWAHAPLNVPKEAAKEIRRACTELGAKGLVAGGSNFGGLEFDSPEMDPVWEALCDLDLPMFVHGYNQSVTWGEEANTDRYETTAIVGMNYDESKCFWYMINGGVFDRFPNLKVYITHGGGFVPYQLGRMAQTNPNLDTYHNKKPFLEYLKNFYFDVELHEVPMRQAMVEVIGADRVLYGSNFGGSDAVRHDLTDDLKLSQEDLDKIRWKNACDLLHLDPNKLGKVRG
B2: 75 (protein, listed as Ectocarpus siliculosus)
chain: MAKIDSYTHFACPAFMDHLEAESGHPMVFRGLFSSIPELSDIDLRIRYMDEHGIDVHCLVPLPWLECEPGLHADEGKALEACRIANDEMARVVARFPDRLIGVALIPTTTEQAMIQETTRAVKELGMAGVALFVGPTAKPPDMACFEGLYRTCEELGAVVWMHPCRPQSYADYDSYKGEGSKHQIWNTFGWIYDTSVAMVHIALAGVFRRYPGLKVVTHHHGAMVPFFTARFDTQRRNFQEVEGDDLLEDLRLFYCDTATFGESAANIQQAIDFFGKSQVLFGTDTPMDMGTRGMFTRTTIASVEALGAAPEDKESFYAGNVLDMLGERFAGISGARGAVAARPKGDSTRIAASL
B3: 76 (protein, listed as Polymorphum gilvum)
chain: MAKKIDIFNHIWPEPFFKALIAHIGEMTDITMRSGAVPMMTNLDRRFEVMDMFGPDYMQVLSLASPPLEKLADPAKALELSRIGSDSLAELCQRYPERFPAFIGTAPLSNPAAVVGECRRAIEDLGAAGMQIFTNVAGKPLDLAEFEPFFEYMASAGKPVWLHPARGEAFADYQTEKRSEYEIWWTFGWPYETSAAMARLVFSRMFDKYPGLKVITHHAGGMVPFFEGRVGPGWDQMGARTTDRDLAAVRKALKRPHLDYFKEFYADTASFGSRKAIEHAIEFFGEDRVLFASDAPFDPEGGPMYIRETMRCIDSLDLTDAQRRKIYHGNATALLGLSL
B4: 72 (protein)
chain: MADCPCCVSPKRRRLLGSVSAIAAGMMAGLPALAAQPSTAAAGTGKPLSIDIHAHYYSESFLGLLGGEGKQFGGHFFRNDDSFTFQTPAGGLGPLPMKFIDVEQRVRDMDNSGVDVQAISLSVPMVYWADRTLNAKLARAWNTAASDVHRKHPTRFVVLATLPMLNANDAIDELEFAAGLPGVRGIYMGTNINNRDLDDPLFSPIFKRIEQLNLPIFLHPQQTVGGARLADFYLSNLLGNPFDTAIAASHLILGGVLDKYPALHFSLPHAGGALPILVGRIDAGWSMRSETKRVAQKPSSYLRRFSYDTISHSGPTLDFLIRNIGADRLVLGSDYCFDMGYEQPVRFLDRLALPDDQKRMVVGGNAARLLNL
modifications: Cupriavidus necator
B5: 80 (protein, listed as Cordyceps militaris)
chain: MAAASTPVVVDIHTHMYPPSYIAMLEKRQTIPLVRTFPQADEPRLILLSSELAALDAALADPAAKLPGRPLSTHFASLAQKMHFMDTNGIRVSVISLANPWFDFLAPDEAPGIADAVNAEFSDMCAQHVGRLFFFAALPLSAPVDAVKASIERVKNLKYCRGIILGTSGLGKGLDDPHLLPVFEAVADAKLLVFLHPHYGLPNEVYGPRSEEYGHVLPLALGFPMETTIAVARMYMAGVFDHVRNLQMLLAHSGGTLPFLAGRIESCIVHDGHLVKTGKVPKDRRTIWTVLKEQIYLDAVIYSEVGLQAAIASSGADRLMFGTDHPFFPPIEEDVQGPWDSSRLNAQAVIKAVGEGSSDAAAVMGLNAVRVLSLKAE
B6: 79 (protein)
chain: MATTTTPSTLIATLESHLTPTLAFTSPTTSPTQPALHLIPPTTLTKLRNLGPGRVKDMHMLGHSRQIISHIPVAAPPQICSRFNDAIHAATMTNTAKFSVLAVLPTDGMEAAKELARCVSKYRFVGGVIGLNRGLRINGEGWEELWGLAERLRIPIMFREMWPLAFEIVDYQHHLPYSALGPILTQLHTSHTSSPLPLVRLYLSSVFDHYPSLRLVLAHPGSLPSLVPRIESLINSIPATDKPKRSFLDVWQHNIYLTTADAQDMSSLRALLEQIPVDRVLYASNYPFEERGNELMNELRESEFLTNIEWERVAWVNAETLFNLKEAGTKEARQLTTIPSSRS
modifications: Pyrenophora teres
B7: 77 (protein)
chain: MALIDLHAHAPHPGYYNQHPHWGPFFERHEDGDVKLRVGDWILTLGSPERKALVRAGKGPTVEEYQARWADPKVRLAGMDAAGQNAQVVSVPSHCYMYWAEKEFSVPFATKVNDTFAEYCSAAPDRLMFWAHAALNAPEQAALELRRACTELGAKGLVAGGANFGGLEFDSPELDPVWKVLCDLDLPMFIHGYNQSVTWGKKANDDRYETTAIVGMQYDETRCFWNLVCGGVLDRFPGLKVYITHGGGYVPYQLGRLAQCNGNLDVAHNKKPVLEYLKNNFYFDVELHEVPMRQALIDIIGADRVLYGSNFGGSDAVRHDLTEGLRLSDDDLQKIRWKNACKLLHLDPAKIGEPAKKQAVSA
modifications: Burkholderia xenovorans
B8: 6 (protein)
chain: MAEILSPEESIYYSKLSNDILAEGIKKNPTRFRGFAALPTPDPIQAAMELERCIKLGGFVGAIINGHINGHYLDEIQFDPILEAADALDVPLYIHPAVPPKAIIDTYYKMNDTYAQTVMVSGGWGWHIETGVHVLRLISSGVFDRHPNLKIVIGHLGEGLPFFMHRLNNAIGGNLKKSYSTYLKENIYYTISGFNDPDLFQFVLKKVGENNIMFSSDYPFNFPKREVELFNELNISEEVREKISFKNAERILKI
modifications: Treponema brennaborense
B9: 73 (protein, listed as Sphaerobacter thermophilus)
chain: MARIDAHAHAQPPEYLDALLASGRYESVRDAEGRIVVRERGSRFLTITPQMHHPEQRVAEMDEAGIDMQILSVTTPQVYFLQGQAAVDLARRCNDYLADIVRSYPTRFRALASVPLTADPDAAVREFVRCLDDLGMVGAIIGSNIDGRPIDDPAFDAFYAEADRRATTLFIHPMVPAGIEVMNPYALAPLVGFMFDTTLAVSRLIFSGFFERYPRVKVLVGHLGAAVPYLAGRLDIGWRSYSDCQGIPHPPTEYIRRLYLDTVSFHAPALRCALETVGPDRIVFGSDYPHVIGDVGGAIASIQQALPATTHDGVLGHTAAELFGVSA
B10: 74 (protein, listed as Ramlibacter tataouinensis)
chain: MATVIDVHTHMFTTKWLELLKKEGGQYNIQTRPDGQQEIFRGNTPVVIPQKGHFDWKLRIQHMDQAGIDVSVVSLTCPNVYWGGEDVSVRAAREANDNVAQAQTAYPDRIRWFASLPWEYMATVIDVHTHMFTTKWLELLKKEGGQYNIQTRPDGQQEIFRGNTPVVIPQKGHFDWKLRIQHMDQAGIDVSVVSLTCPNVYWGGEDVSVRAAREANDNVAQAQTAYPDRIRWFASLPWEYPQRAVEELERSCAQGAAGVMVLANVAGRSLTDPLFAPVWAEIDRRALPVLVHPTDPPGVDLMDMTKFDLSWSVGFMFDTTLAITRMIFEGFFDRYPNLRIIASHGGGTLPYLVGRFEKGDEVELASRRQMKRKPTDYLRHIHYDCITYNLGALQYLISVVGAGQVMFGTDWPHWVHDTRGAFANTAQLPQEQTRAVRGANAQRLFKL

Assay: 14C assay with IPTG-induced recombinant E. coli cells (14CO2 capture from [14C]-carboxyl-labeled dicamba)
Conditions: for Dicamba Decarboxylase Activity: IPTG-induced recombinant E. coli cells, [14C]-carboxyl-labeled dicamba, 14CO2 capture; for Enzymatic Detection level: dicamba decarboxylation activity of the protein of the given SEQ ID NO

Molecule | Dicamba Decarboxylase Activity | Enzymatic Detection level
B1 | Low | Low
B2 | Low | Low
B3 | No | No
B4 | Low | Low
B5 | Low | Low
B6 | High | High
B7 | No | No
B8 | No | No
B9 | Low | Low
B10 | Low | Low

— patent US20140287419A1, “Compositions Having Dicamba Decarboxylase Activity and Methods of Use” (priority 2013, published 2014)
